The values that follow come from PMC2696590.

Assay [1] addresses NTS1-7l, MBP and TrxA-H10 fusion (rat) (UniProt P20789). The assay can be described thus: radioligand binding; saturation binding of 1 pM to 10 nM [^3H]-NT to intact E. coli cells expressing the receptor; TEBB buffer, no detergents, 2 hours on ice, GF/B filters; apparent KD, one-site with ligand depletion.
The target of assay [2] is NTS1-7o, MBP and TrxA-H10 fusion (rat) (UniProt P20789). The assay is described as above.
In another assay the target is SR142948. Briefly: competition binding assay against [3H]-NT on intact E. coli cells. The following applies: 5 nM agonist [3H]-NT.
The next assay concerns the target [^3H]-neurotensin. The assay can be described thus: saturation binding assay on intact E. coli cells.

NTS1-7o, MBP and TrxA-H10 fusion (rat), sequence (P20789 43-424): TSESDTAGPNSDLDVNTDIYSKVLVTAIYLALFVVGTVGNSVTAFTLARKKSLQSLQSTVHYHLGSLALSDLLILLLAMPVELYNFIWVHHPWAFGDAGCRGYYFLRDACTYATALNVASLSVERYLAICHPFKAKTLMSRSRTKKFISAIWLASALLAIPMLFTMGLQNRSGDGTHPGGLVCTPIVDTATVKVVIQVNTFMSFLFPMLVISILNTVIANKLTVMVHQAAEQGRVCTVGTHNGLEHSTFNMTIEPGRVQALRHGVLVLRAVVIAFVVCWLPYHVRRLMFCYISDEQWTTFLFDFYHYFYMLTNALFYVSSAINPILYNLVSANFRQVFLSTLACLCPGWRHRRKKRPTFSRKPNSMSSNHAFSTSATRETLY
NTS1-7l, MBP and TrxA-H10 fusion (rat), sequence (P20789 43-424): as above
wild-type NTS1 (N-terminally truncated rat neurotensin type I receptor starting at Thr43), MBP and TrxA-H10 fusion (from UniProt P20789) A86L; F358A, sequence (P20789 whole entry A86L/F358A, looked up, the tested form may be a part): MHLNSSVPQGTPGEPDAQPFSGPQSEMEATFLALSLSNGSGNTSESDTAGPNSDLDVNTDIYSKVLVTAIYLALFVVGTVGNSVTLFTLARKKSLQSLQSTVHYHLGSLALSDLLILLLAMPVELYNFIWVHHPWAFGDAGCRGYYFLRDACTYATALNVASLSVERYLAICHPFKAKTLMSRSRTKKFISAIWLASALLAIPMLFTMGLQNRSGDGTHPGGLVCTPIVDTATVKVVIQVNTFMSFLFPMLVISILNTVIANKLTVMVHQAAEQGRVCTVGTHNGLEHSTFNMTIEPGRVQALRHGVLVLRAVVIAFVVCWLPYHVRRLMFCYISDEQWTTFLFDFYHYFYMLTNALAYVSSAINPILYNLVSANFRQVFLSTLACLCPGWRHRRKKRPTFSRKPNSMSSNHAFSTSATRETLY
wild-type NTS1 (N-terminally truncated rat neurotensin type I receptor starting at Thr43), MBP and TrxA-H10 fusion (from UniProt P20789) A86L; I260A; F342A; F358A, sequence (P20789 whole entry A86L/I260A/F342A/F358A, looked up, the tested form may be a part): as the sequence (P20789 whole entry A86L/F358A, looked up, the tested form may be a part) above, with I260A, F342A counted along it
wild-type NTS1 (N-terminally truncated rat neurotensin type I receptor starting at Thr43), MBP and TrxA-H10 fusion (from UniProt P20789) NTS1-7e, sequence (P20789 whole entry, looked up, change not shown, the tested form may be a part): as the sequence (P20789 whole entry A86L/F358A, looked up, the tested form may be a part) above, with L86A, A358F counted along it
wild-type NTS1 (N-terminally truncated rat neurotensin type I receptor starting at Thr43), MBP and TrxA-H10 fusion (from UniProt P20789) NTS1-7g, sequence (P20789 whole entry, looked up, change not shown, the tested form may be a part): as the sequence (P20789 whole entry A86L/F358A, looked up, the tested form may be a part) above, with L86A, A358F counted along it
wild-type NTS1 (N-terminally truncated rat neurotensin type I receptor starting at Thr43), MBP and TrxA-H10 fusion (from UniProt P20789) NTS1-7f, sequence (P20789 whole entry, looked up, change not shown, the tested form may be a part): as the sequence (P20789 whole entry A86L/F358A, looked up, the tested form may be a part) above, with L86A, A358F counted along it
wild-type NTS1 (N-terminally truncated rat neurotensin type I receptor starting at Thr43), MBP and TrxA-H10 fusion (from UniProt P20789) NTS1-7l, sequence (P20789 whole entry, looked up, change not shown, the tested form may be a part): as the sequence (P20789 whole entry A86L/F358A, looked up, the tested form may be a part) above, with L86A, A358F counted along it
wild-type NTS1 (N-terminally truncated rat neurotensin type I receptor starting at Thr43), MBP and TrxA-H10 fusion (from UniProt P20789) NTS1-7o, sequence (P20789 whole entry, looked up, change not shown, the tested form may be a part): as the sequence (P20789 whole entry A86L/F358A, looked up, the tested form may be a part) above, with L86A, A358F counted along it

As for [^3H]-neurotensin (peptide), the Kd came out at 0.22 nM in assay [1] and 0.03 nM in assay [2]. As a reminder, the Ki is the equilibrium dissociation constant of an inhibitor or competing ligand from its target. Higher therefore signals a looser hold on the target. As to “wild-type NTS1 (N-terminally truncated rat neurotensin type I receptor starting at Thr43), MBP and TrxA-H10 fusion (from UniProt P20789) A86L; F358A”, the Ki with SR142948 amounted to 0.58 nM.

Substance “wild-type NTS1 (N-terminally truncated rat neurotensin type I receptor starting at Thr43), MBP and TrxA-H10 fusion (from UniProt P20789) A86L; I260A; F342A; F358A” displayed a Ki with SR142948 of 1.2 nM.

“wild-type NTS1 (N-terminally truncated rat neurotensin type I receptor starting at Thr43), MBP and TrxA-H10 fusion (from UniProt P20789) NTS1-7e” showed an inhibition constant (Ki) with SR142948 of 0.91 nM. Further, the Kd in assay [^3H]-neurotensin amounted to 0.14 nM. The substance “wild-type NTS1 (N-terminally truncated rat neurotensin type I receptor starting at Thr43), MBP and TrxA-H10 fusion (from UniProt P20789) NTS1-7f” showed a Ki with SR142948 of 0.73 nM. In addition, the Kd in assay [^3H]-neurotensin was 0.04 nM. For “wild-type NTS1 (N-terminally truncated rat neurotensin type I receptor starting at Thr43), MBP and TrxA-H10 fusion (from UniProt P20789) NTS1-7g” the same measures were 2.8 nM and 0.21 nM. For “wild-type NTS1 (N-terminally truncated rat neurotensin type I receptor starting at Thr43), MBP and TrxA-H10 fusion (from UniProt P20789) NTS1-7l”, in the assay with SR142948, the Ki is 0.32 nM. “wild-type NTS1 (N-terminally truncated rat neurotensin type I receptor starting at Thr43), MBP and TrxA-H10 fusion (from UniProt P20789) NTS1-7o” displayed a Ki with SR142948 of 0.22 nM.
